From patent US20170051048A1 (ALDERBIO, published 2017)

What was measured:
[1] = target: T1, Homo sapiens Beta-Nerve Growth Factor (beta-NGF) (Homo sapiens, UniProt P01138 122-241); experiment: Antigen binding ELISA: biotinylated NGF on neutravidin plates, anti-human Fc-HRP, OD 450 nm
T1 construct: Biotinylated and held on neutravidin plates in the ELISA; also called huNGF; B-NGF
Description: (§1) To identify and characterize antibodies and Fab fragments that bind to human NGF, antibody- and Fab-containing solutions were tested by ELISA. Briefly, neutravidin coated plates (Thermo Scientific), were blocked with ELISA buffer (0.1 mg/mL BSA, 1×PBS pH 7.4, 0.002% Tween 20 and 0.005% sodium azide) for 1 hr at room temperature. The plates were then coated with a 1 µg/mL biotinylated B-NGF solution in ELISA buffer for 1 hour at room temperature. This was followed by a wash step (3× using PBS plus 0.05% Tween 20) and a second block with ELISA buffer. The recombinant antibodies or Fabs were then added onto the plates and incubated for 1 hour at room temperature and then washed 3× with PBS/Tween solution. For development, an anti-human Fc-HRP or an anti-human Fab-fragment HRP (1:5000 dilution in ELISA buffer) was added onto the wells and incubated for 45 min at RT. After a 3× wash step with PBS/Tween solution, the plate was developed using TMB substrate for 3 minutes, stopped using 0.5M HCl, and read at 450 nm.

[2] = target: T1, Homo sapiens Beta-Nerve Growth Factor …; experiment: Antigen binding ELISA: biotinylated NGF on neutravidin plates, anti-human Fab-fragment HRP, OD 450 nm
Description: as §1

T1 sequence (P01138 122-241): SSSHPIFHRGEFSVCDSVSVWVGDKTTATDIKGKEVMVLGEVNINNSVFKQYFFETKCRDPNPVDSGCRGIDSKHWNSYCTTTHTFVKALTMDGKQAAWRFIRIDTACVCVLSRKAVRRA

Binder	EC50 [1]	EC50 (read off the curve) [1]	EC50 [2]	EC50 (read off the curve) [2]
Antibody Ab2 (antibody, human IgG1, kappa, N297A, V domains shown) VH: EVQLVESGGGLVQPGGSLRLSCAASGFTVSSYAMSWVRQAPGKGLEWVGVITSIGSTVYASSAKGRFTISRDNSKNTLYLQMNSLRAEDTAVYYCARGYDDYDEMTYFNIWGQGTLVTVSS VL: DIQMTQSPSTLSASVGDRVTITCQASQNIYSNLAWYQQKPGKAPKLLIYGASNLDAGVPSRFSGSGSGTEYTLTISSLQPDDFATYYCQSAFDSDSTENTFGGGTKVEIKR	692 pM	~700 pM		
Antibody Ab6 (antibody, human IgG1, kappa, N297A) heavy: not shown light: DIQMTQSPSTLSASVGDRVTITCQASQSIYSNLAWYQQKPGKAPKLLIYDASTLESGVPSRFSGSGSGTEYTLTISSLQPDDFATYYCQQGFTVSDIDNAFGGGTKVEIKRTVAAPSVFIFPPSDEQLKSGTASVVCLLNNFYPREAKVQWKVDNALQSGNSQESVTEQDSKDSTYSLSSTLTLSKADYEKHKVYACEVTHQGLSSPVTKSFNRGEC	256 pM	~300 pM		
Antibody Ab3 (antibody, human IgG1, kappa, N297A, V domains shown) VH: QSVEESGGRLVTPGTPLTLTCTVSGFSLSSYVMIWVRQAPGKGLEYIGITWSAGTYYASWAKGRFTISKTSSTTVDLKITSPTTEDTATYFCAGGGGSIYDIWGPGTLVTVSS VL: AVLTQTPSPVSAAMGDTVTIKCQSSQSVYKNNYLSWYQQKPGQPPRLLIYDASNLPSGVPSRFSGSGSGTQFTLTISGVQCDDAATYYCLGDYDDDADNAFGGGTEVVVKR	257 pM	~300 pM		
Antibody fragment Fab1 (Fab, V domains shown) VH: EVQLVESGGGLVQPGGSLRLSCAASGFTVSNYAVGWVRQAPGKGLEWVGIIGRNGNTWYASSARGRFTISRDNSKNTLYLQMNSLRAEDTAVYYCARGYGRSVAYYVFNIWGPGTLVTVSS VL: DIQMTQSPSTLSASVGDRVTITCQASQSIYSNLAWYQQKPGKAPKLLIYDASTLESGVPSRFSGSGSGTEYTLTISSLQPDDFATYYCQQGFTVSDIDNAFGGGTKVEIKR			400 pM	~40 pM
Antibody fragment Fab2 (Fab, V domains shown) VH: EVQLVESGGGLVQPGGSLRLSCAASGFTVSNYAVGWVRQAPGKGLEWVGIIGRNGNTWYASSARGRFTISRDNSKNTLYLQMNSLRAEDTAVYYCARGYGRSVAYYVFNIWGPGTLVTVSS VL: DIQMTQSPSTLSASVGDRVTITCQASQSIYSNLAWYQQKPGKAPKLLIYDASTLESGVPSRFSGSGSGTEYTLTISSLQPDDFATYYCQQGFTVSDIDNAFGGGTKVEIKR			800 pM	~80 pM
